Results on one molecule are retold here after patent EP4566632A1, “MSLN ANTIBODY-DRUG CONJUGATE” (priority 2022, dated 2024).

For the experiment, the system named is NCI-H226 cells. As to the kind of experiment: Lung cancer NCI-H226 model. The class given is in vivo, BALB/c Nude mouse. Conditions: tail vein, twice a week x5, day 28 post-administration. The procedure:
NCI-H226 cells were cultured in a RPMI-1640 medium containing 10% fetal bovine serum at 37°C in a 5% CO2 atmosphere. On the day of inoculation, NCI-H226 cells in the exponential growth phase were collected. Tumor cells were first resuspended in a mixture of PBS and Matrigel (1:1) and then subcutaneously inoculated. Each BALB/c Nude mouse was subcutaneously inoculated with 5 × 10^6 NCI-H226 tumor cells. When the average tumor volume in each group of mice reached 150 mm^3, the mice were divided into groups for dosing. 55 mice were divided into 11 groups, after which dosing began. The dosing schedule was twice a week for a total of five administrations via tail vein injection at doses of 1 mg/kg body weight or 5 mg/kg body weight. After dosing began, body weight and tumor volume were measured twice weekly. Tumor volume was calculated using the formula of: Tumor Volume (mm^3) = 0.5 × Tumor long diameter × Tumor short diameter^2. Observations concluded on day 28 post-administration, followed by the euthanasia of all mice. Data analysis was performed using the t-test.

B1: BAY-949343: ADC developed by Bayer: anti-MSLN monoclonal antibody MF-T (anetumab) conjugated to maytansinoid DM4 via SPDB linker (conjugate, chains of the INN, looked up)
VH: QVELVQSGAEVKKPGESLKISCKGSGYSFTSYWIGWVRQAPGKGLEWMGIIDPGDSRTRYSPSFQGQVTISADKSISTAYLQWSSLKASDTAMYYCARGQLYGGTYMDGWGQGTLVTVSS
VL: DIALTQPASVSGSPGQSITISCTGTSSDIGGYNSVSWYQQHPGKAPKLMIYGVNNRPSGVSNRFSGSKSGNTASLTISGLQAEDEADYYCSSYDIESATPVFGGGTKLTVL
modifications: DM4 via SPDB linker (ravtansine)
B1 yielded an average tumor volume (1 mg/kg) of 497 mm^3 and an average tumor volume (5 mg/kg) of 253 mm^3. Further, the “tumor growth inhibition rate (TGI, %)” value by setting is: (1 mg/kg) 68%; (5 mg/kg) 84%.
